Assay results published in the supplement of paper PMC9170038.

System: MS2 coat protein
Assay: apparent KD of MS2 coat protein; designed switch direction (-1 OFF switch, 1 ON switch): 1; higher = weaker reporter binding
Outline: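 Three titration conditions were used: no input, 200 uM small-molecule ligand, and an oligonucleotide input. In each, SNAP-549-labelled MS2 coat protein was raised from 0.7 or 1.5 nM, doubling, to 3 µM over designed RNA switches transcribed on Illumina chips by stalled E. coli RNA polymerase. Curve fits of normalised cluster fluorescence gave values whose per-design median over clusters is the apparent KD.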

[1] = input ligand: microRNA oligo, concentration not stated
[2] = Eterna round: R95, input ligand: microRNA oligo, concentration not stated
[3] = Eterna round: R95, input ligand: FMN 200 uM
[4] = Eterna round: R95, input ligand: none

Row | Sequence | apparent KD of MS2 coat protein (input ligand: FMN 200 uM) | apparent KD of MS2 coat protein [1] | apparent KD of MS2 coat protein (input ligand: none) | apparent KD of MS2 coat protein [2] | apparent KD of MS2 coat protein [3] | apparent KD of MS2 coat protein [4]
1 | GAGCCAGUCCGAGGAUAUUCAUAUUAACACAUGAGGAUCACCCAUGUAGGCUCAGAAGAGCCCUGGGAGAAGGCGGACUGGCUC [SS-NG2-LRO15] (Eterna round: R96, puzzle: Same State NG 2) | 85.5 nM | 455 nM | 1100 nM | – | – | –
2 | GAGCGCUGUCGAGAGGAUAUGCGGUGAUGGACAUGAGGAUCACCCAUGUUAGCGAUAGCAUUACGGUAGAAGGCUCUACAGCUGC [Mat - Same State 2 - Mod of UCT - D87] (puzzle: Same State 2) | – | – | – | 22.3 nM | – | –
3 | GAGCUCCAACGCGGAGCUCCACAUGAGGAUCACCCAUGUACACAGGAUAUCACUCCCUUUGGGAGUGAGAAGGGUGGUUCGGAA [Bebeave] (Eterna round: R96, puzzle: Same State NG 3) | 41.4 nM | 41.9 nM | 58.6 nM | – | – | –
4 | GAGCUCGUGUGAGGAUAUGCCGCCGUUUCGGCUGCAGAAGGUGCUACGUUACAUGAGGAUCACCCAUGUCUCUGUUGUUUCGUA [salish99_SSNG1_r04_960] (Eterna round: R96, puzzle: Same State NG 1) | 65.1 nM | 43.3 nM | 51.1 nM | – | – | –
5 | GAGCUCGUGUGAGGAUAUGCCGCCGUUUCGGCUGCAGAAGGUGCUACGUUACAUGAGGAUCACCCAUGUCUCUGUUGUUUCGUC [salish99_SSNG1_r04_961] (Eterna round: R96, puzzle: Same State NG 1) | 25.1 nM | 24.2 nM | 30 nM | – | – | –
6 | GAGGAUGAUUUACAGGAUAUAUAGAAGAUGACAUGAGGAUCACCCAUGUAAGAGAGAGGAGGGAGAUAGAAGGGUAAGGGAUGUG [JR_SS2_Sub41] (puzzle: Same State 2) | – | – | – | 27.8 nM | 35.4 nM | 49.6 nM
7 | GAGGGCGAAAGCAACAUGAGGAUCACCCAUGUCCUCGGAGGUCAGGAUAUCCGGCGGUAGCCGAAGGAGAAGGGACGGUGAACC [AK SSNG3-V2-32.1] (Eterna round: R96, puzzle: Same State NG 3) | 180 nM | 97.5 nM | 175 nM | – | – | –
8 | GAGUAGUUGAAAGGAUAUGGAUUGUUAUAGAAUCCAGAAGGUUCUAACAUGAGGAUCACCCAUGUAGGACUAUUCCUGUGUAUC [Parity 79 - Jieux - Same State NG 1] (Eterna round: R96, puzzle: Same State NG 1) | 10.2 nM | 9.3 nM | 12.2 nM | – | – | –
9 | GAGUAGUUGGGAGGAUAUCCAUUGUUAUAGAAUGGAGAAGGUUUUAACAUGAGGAUCACCCAUGUAGGACUAUUCCUGUGUAUC [Parity 72 - Jieux - Same State NG 1] (Eterna round: R96, puzzle: Same State NG 1) | 13.5 nM | 12.2 nM | 16.8 nM | – | – | –
10 | GAGUGACAUGAGGAUCACCCAUGUAGAAUAGAACAAGGAUAUGUGGAAGGCGGAGGAGAGACAGAAGGUGUUGAAG [JR_SS1_Sub057] (puzzle: Same State 1) | – | – | – | 46 nM | 49 nM | 67.7 nM
11 | GAGUGGCAGUUAGGAUAUAUAGUGAUAAUUACAAUAGAAGGAACAGACAUGAGGAUCACCCAUGUAGGACUAAUCCAGAGAGAG [Parity 38 - Jieux - Same State NG 1] (Eterna round: R96, puzzle: Same State NG 1) | 30.9 nM | 20.6 nM | 30.9 nM | – | – | –
12 | GAUACACAUGAGGAUCACCCAUGUCGUAUGACAUGAGGAUAUGUACAGACUUCGGUCUGUACAGAAGGCAUGUGUC [SS1 - 1011 Omei Mod 2] (puzzle: Same State 1) | – | – | – | 48.3 nM | – | –
13 | GAUCGUUUGAUAGGAUAUCGCUAUACAUGAGGAUCACCCAUGUUUACCACGCUGGUUUUUCAUACCGAGAAGGAUUCUGAUGAA [salish99_SSNG02_r04_010] (Eterna round: R96, puzzle: Same State NG 2) | 27.5 nM | 27.8 nM | 30.7 nM | – | – | –
